Experimental data taken from the supplement of paper PMC10065799, “High-throughput profiling of sequence recognition by tyrosine kinases and SH2 domains using bacterial peptide display” (eLife, 2023).

Columns and labels:
AncSZ = experiment: phosphorylation enrichment, bacterial display (enrichment ratio); higher = better substrate or ligand; peptides without Tyr show the background
EPHB1 = EPHB1 (UniProt P54762); experiment: as above
EPHB2 = EPHB2 (UniProt P29323); experiment: as above
FGFR1 = FGFR1 (UniProt P11362); experiment: as above
FGFR3 = FGFR3 (UniProt P22607); experiment: as above
Fer (mouse) = experiment: as above
Fes = Fes (UniProt P07332); experiment: as above
Fyn = Fyn (UniProt P06241); experiment: as above
Hck = Hck (UniProt P08631); experiment: as above
Jak2 = Jak2 (UniProt O60674); experiment: as above
MERTK = MERTK (UniProt Q12866); experiment: as above
c-Abl (mouse) = experiment: as above
c-Src = experiment: as above
Grb2 SH2 = Grb2 SH2 (UniProt P62993); experiment: SH2 binding enrichment of the phosphorylated peptide, bacterial display (enrichment ratio); higher = better substrate or ligand; peptides without Tyr show the background
SHP2-C SH2 = experiment: as above
c-Src SH2 = experiment: as above
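Wherever SH2 binding enrichment of the phosphorylated peptide, bacterial display is given: peptide library displayed on the E. coli surface as eCPX fusions, selected cells deep-sequenced, score is each peptide's frequency after selection divided by its frequency in the input.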
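Wherever phosphorylation enrichment, bacterial display is given: 11-residue human phosphosite peptides and single-mutation variants displayed on the E. coli surface, counted by deep sequencing, each peptide's frequency after selection divided by its frequency in the unselected input library; frequency after pTyr selection over input frequency; kinase dosed for 20-30% of maximal phosphorylation in three min.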

Hck, sequence (P08631 whole entry, looked up): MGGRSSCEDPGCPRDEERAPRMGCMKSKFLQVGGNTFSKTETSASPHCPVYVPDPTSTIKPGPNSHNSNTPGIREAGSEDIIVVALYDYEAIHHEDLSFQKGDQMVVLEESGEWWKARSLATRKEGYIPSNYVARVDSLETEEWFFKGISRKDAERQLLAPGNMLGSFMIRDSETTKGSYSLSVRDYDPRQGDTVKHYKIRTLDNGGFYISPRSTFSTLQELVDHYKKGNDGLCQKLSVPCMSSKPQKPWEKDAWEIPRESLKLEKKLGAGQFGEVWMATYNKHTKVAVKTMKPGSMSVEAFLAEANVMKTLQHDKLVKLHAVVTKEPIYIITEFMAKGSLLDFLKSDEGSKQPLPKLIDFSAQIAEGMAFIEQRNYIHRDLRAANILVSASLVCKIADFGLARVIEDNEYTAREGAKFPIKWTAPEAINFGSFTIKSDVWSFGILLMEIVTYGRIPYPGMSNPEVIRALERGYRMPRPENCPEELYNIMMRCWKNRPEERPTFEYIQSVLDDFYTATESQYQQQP
Fyn, sequence (P06241 whole entry, looked up): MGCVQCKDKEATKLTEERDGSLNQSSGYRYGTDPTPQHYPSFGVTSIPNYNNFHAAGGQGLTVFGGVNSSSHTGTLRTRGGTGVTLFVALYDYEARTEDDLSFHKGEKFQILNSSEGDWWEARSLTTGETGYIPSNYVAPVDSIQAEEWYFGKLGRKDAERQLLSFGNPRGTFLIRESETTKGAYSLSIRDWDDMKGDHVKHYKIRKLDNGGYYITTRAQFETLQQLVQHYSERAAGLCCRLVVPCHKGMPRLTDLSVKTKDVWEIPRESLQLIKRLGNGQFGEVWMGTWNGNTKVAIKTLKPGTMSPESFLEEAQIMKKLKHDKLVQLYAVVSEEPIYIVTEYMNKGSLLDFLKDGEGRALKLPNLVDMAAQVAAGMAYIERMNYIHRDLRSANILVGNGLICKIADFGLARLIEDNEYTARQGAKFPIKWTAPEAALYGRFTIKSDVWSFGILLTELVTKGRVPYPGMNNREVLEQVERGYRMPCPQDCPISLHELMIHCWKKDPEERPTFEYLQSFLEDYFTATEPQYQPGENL
Jak2, sequence (O60674 whole entry, looked up): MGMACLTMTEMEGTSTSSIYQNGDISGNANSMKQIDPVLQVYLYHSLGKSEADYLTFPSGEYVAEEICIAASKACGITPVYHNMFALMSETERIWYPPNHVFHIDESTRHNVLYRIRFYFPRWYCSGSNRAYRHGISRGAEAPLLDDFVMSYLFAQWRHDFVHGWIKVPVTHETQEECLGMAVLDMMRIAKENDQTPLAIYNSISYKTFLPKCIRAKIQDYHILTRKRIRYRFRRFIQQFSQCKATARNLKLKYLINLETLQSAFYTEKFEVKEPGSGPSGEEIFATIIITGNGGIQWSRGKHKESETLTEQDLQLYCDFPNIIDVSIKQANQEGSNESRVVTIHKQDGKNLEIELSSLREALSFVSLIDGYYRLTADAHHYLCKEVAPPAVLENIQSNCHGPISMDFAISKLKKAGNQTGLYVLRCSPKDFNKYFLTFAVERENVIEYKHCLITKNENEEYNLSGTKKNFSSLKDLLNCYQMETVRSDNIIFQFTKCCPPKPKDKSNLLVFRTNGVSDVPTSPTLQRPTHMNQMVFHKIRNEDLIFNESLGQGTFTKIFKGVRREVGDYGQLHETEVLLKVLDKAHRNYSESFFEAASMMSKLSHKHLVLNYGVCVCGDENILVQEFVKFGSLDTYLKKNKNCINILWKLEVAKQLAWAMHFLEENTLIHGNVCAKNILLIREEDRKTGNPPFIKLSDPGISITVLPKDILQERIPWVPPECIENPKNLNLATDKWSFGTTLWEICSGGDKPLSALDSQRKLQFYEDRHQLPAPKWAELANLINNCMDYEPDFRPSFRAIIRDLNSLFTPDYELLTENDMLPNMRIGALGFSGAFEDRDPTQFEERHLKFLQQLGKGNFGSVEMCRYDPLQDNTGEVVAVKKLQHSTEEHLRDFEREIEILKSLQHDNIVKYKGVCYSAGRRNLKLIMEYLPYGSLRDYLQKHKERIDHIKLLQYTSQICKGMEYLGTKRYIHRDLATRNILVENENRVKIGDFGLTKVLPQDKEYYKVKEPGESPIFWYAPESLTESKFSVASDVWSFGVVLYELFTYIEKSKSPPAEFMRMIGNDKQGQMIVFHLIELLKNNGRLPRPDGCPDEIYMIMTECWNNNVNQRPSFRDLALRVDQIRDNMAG
FGFR3, sequence (P22607 whole entry, looked up): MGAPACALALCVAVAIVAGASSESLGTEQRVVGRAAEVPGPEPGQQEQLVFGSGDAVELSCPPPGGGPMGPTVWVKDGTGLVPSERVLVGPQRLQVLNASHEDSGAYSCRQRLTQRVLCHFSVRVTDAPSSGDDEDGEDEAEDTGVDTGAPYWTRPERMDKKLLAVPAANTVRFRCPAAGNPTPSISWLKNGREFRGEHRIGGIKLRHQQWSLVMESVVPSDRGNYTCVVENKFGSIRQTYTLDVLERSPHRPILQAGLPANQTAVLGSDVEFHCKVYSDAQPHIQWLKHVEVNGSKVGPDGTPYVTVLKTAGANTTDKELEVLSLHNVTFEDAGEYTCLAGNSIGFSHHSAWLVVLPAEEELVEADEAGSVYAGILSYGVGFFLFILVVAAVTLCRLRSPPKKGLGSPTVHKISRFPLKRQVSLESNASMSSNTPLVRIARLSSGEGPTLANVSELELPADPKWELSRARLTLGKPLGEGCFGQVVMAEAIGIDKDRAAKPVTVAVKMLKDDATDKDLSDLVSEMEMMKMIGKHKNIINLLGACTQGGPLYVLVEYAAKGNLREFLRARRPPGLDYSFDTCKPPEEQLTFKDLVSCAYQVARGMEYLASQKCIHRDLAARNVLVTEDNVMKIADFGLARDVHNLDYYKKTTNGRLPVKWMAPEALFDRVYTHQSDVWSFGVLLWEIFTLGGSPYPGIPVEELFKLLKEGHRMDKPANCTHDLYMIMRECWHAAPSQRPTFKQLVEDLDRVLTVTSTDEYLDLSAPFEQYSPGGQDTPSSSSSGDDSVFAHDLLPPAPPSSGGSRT
FGFR1, sequence (P11362 whole entry, looked up): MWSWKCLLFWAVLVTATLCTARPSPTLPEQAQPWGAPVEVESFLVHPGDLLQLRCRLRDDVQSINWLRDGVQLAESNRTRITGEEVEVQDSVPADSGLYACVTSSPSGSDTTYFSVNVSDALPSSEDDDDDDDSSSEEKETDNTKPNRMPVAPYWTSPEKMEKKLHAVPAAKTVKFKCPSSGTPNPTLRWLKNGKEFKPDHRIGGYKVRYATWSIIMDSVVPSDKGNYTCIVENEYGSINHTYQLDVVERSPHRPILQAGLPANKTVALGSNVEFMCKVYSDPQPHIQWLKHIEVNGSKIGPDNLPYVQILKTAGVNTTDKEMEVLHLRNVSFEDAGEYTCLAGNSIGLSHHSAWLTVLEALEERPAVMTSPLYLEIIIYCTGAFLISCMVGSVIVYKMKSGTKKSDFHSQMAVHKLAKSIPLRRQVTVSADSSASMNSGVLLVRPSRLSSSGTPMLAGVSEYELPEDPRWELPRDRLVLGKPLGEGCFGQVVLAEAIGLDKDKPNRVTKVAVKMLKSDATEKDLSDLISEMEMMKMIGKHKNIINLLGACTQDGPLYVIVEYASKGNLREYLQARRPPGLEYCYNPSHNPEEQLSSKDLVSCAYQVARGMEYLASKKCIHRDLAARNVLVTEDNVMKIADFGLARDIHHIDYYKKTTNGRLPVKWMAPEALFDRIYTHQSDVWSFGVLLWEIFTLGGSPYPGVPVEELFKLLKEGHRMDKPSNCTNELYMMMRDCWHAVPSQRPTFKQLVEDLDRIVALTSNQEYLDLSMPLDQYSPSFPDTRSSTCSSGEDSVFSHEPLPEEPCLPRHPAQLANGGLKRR
MERTK, sequence (Q12866 whole entry, looked up): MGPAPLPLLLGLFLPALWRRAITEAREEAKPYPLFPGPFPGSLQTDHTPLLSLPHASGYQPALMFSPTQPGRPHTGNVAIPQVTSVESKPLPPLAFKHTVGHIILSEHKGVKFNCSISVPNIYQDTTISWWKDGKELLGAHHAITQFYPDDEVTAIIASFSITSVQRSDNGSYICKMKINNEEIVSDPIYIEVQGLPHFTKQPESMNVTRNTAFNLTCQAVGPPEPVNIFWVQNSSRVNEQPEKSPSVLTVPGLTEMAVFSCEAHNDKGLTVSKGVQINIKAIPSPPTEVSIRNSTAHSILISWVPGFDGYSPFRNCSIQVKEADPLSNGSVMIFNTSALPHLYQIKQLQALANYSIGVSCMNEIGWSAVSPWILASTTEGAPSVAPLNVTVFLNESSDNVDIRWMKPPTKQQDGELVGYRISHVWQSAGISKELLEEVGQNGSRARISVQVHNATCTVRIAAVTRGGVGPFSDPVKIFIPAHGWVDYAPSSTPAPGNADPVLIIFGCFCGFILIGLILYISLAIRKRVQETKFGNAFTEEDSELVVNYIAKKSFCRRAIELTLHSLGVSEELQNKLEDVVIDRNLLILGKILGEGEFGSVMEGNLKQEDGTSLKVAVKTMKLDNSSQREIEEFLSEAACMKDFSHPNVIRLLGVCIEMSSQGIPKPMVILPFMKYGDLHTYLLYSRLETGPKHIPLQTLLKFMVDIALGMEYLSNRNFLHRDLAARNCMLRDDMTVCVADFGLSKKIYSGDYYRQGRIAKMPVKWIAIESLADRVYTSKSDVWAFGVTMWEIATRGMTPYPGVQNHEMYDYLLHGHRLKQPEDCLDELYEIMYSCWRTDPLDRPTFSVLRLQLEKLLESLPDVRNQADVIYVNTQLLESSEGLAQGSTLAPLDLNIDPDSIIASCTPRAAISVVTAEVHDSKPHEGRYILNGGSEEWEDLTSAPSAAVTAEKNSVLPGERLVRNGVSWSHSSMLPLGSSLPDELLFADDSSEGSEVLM

SH2 binding enrichment (Grb2 SH2)	SH2 binding enrichment (SHP2-C SH2)	SH2 binding enrichment (c-Src SH2)	Sequence	phosphorylation enrichment (AncSZ)	phosphorylation enrichment (EPHB1)	phosphorylation enrichment (EPHB2)	phosphorylation enrichment (FGFR1)	phosphorylation enrichment (FGFR3)	phosphorylation enrichment (Fer (mouse))	phosphorylation enrichment (Fes)	phosphorylation enrichment (Fyn)	phosphorylation enrichment (Hck)	phosphorylation enrichment (Jak2)	phosphorylation enrichment (MERTK)	phosphorylation enrichment (c-Abl (mouse))	phosphorylation enrichment (c-Src)
0.895	0.773	0.642	WCSNDYLGMSR [ALAS2_Y199]	1.85	0.959	0.752	1.57	1.25	0.5	0.845	0.551	0.781	3.41	0.398	0.6	0.843
0.664	0.768	0.653	TGSFTYEAVEL [MTMR14_Y462]	1.77	6.56	3.89	0.466	0.711	13.1	1.24	2.21	1.78	1.31	1.87	0.801	2.45
0.644	0.635	0.497	QPGTDYKIFRF [FN1_Y1970_L1974R_YF]	1.77	0.754	0.567	1.22	1.28	0.756	2.04	0.529	1.18	1.64	1.17	1.74	1.89
1.14	0.715	0.69	ERDFTYEELLN [EIF2S2_Y176_YF]	1.23	0.628	0.515	0.527	0.692	0.69	1.12	0.678	0.855	1.01	0.492	0.66	0.675
1.14	0.412	0.79	HKLSYNEYDFE [BTK_Y40_Y40N]	1.27	0.986	0.824	0.756	0.822	0.473	1.13	3.26	0.74	0.968	0.427	0.593	2.02
0.763	0.588	0.471	CPEASYNRSPI [PTAR1_Y42_R41S]	0.82	0.602	0.565	0.58	0.701	0.825	1.09	0.489	0.521	0.882	0.585	0.781	0.528
0.832	0.682	0.56	HFPDVYAREQL [ALX3_Y181_YF]	0.713	0.619	0.703	0.55	0.514	0.561	1.04	0.588	0.722	0.616	0.408	0.667	0.91
0.994	0.892	0.534	SDIEEYVHRIG [DDX3X_Y525]	0.978	0.473	0.456	0.426	0.567	0.367	0.972	0.429	0.455	0.791	0.384	0.953	0.41
1.08	0.972	0.437	VERIHYIGQNE [HMOX2_Y140]	0.617	0.351	0.47	0.555	0.381	0.434	0.638	0.494	0.453	0.553	0.522	0.344	0.368
0.815	0.595	0.443	EEQKKNYNAMK [SCN5A_Y1494_Y1494N]	0.572	0.389	0.364	0.433	0.399	0.336	0.663	0.291	0.351	0.55	0.395	0.497	0.415
0.963	0.53	0.462	HKANEYFPVVL [ADAMTS18_Y764_YF]	0.872	0.951	1.5	8.42	4.38	0.736	0.896	0.807	0.533	1.83	0.528	0.628	0.556
0.713	0.68	0.535	VIEQSYNETWL [SLC2A4_Y56]	1.17	0.567	0.645	0.621	0.827	1.25	1.23	0.558	0.512	1.1	0.436	0.803	0.572
0.635	0.55	0.386	QAQMDYRRWQP [MPL_Y591_L594W]	0.548	0.523	0.539	0.402	0.491	0.49	0.795	0.461	0.424	0.762	0.373	0.745	0.361
1.06	1.12	0.662	FGVVGYLAIVF [RNF175_Y155_M159V]	1.4	0.811	0.691	0.559	1.14	0.649	1.94	0.452	0.557	1.65	0.498	1.1	0.457
0.752	0.563	0.475	ENSLDYGSAWA [AR_Y395_P392S]	1.04	0.486	0.677	0.467	0.591	0.457	0.975	0.556	0.566	0.864	0.462	0.638	0.514
0.796	0.688	1.1	DSYSSYCNAVA [SLC20A2_Y436]	1.44	0.729	0.995	0.904	0.664	0.687	1.23	0.819	0.788	0.859	0.788	0.771	0.84
